Experimental data as given in patent US20040018558A1.
pIC50: −log10 of the molar value.

Assays:
[1] = target: light-activated rhodopsin (bovine rod outer segment membranes) (bovine) (UniProt P02699); test: ELISA, MBP fusion protein on immobilised light-activated rhodopsin
[2] = target: human thrombin receptor (PAR1) (human) (UniProt P25116); test: ELISA, purified MBP-Gαq on purified reconstituted PAR1 with thrombin receptor activating peptide
Chain of human thrombin receptor (PAR1) (human) (P25116 42-425): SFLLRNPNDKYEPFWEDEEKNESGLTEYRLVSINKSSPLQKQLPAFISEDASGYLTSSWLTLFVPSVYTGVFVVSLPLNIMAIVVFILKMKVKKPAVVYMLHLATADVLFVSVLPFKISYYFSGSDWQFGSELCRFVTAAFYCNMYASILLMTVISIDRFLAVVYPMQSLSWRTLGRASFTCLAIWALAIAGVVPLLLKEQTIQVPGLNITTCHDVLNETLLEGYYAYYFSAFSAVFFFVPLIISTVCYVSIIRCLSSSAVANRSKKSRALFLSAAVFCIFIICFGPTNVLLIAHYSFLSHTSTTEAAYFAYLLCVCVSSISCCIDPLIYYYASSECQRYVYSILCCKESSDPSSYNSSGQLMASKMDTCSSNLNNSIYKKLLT

Chain of light-activated rhodopsin (bovine rod outer segment membranes) (bovine) (P02699 whole entry, the tested form may be a part): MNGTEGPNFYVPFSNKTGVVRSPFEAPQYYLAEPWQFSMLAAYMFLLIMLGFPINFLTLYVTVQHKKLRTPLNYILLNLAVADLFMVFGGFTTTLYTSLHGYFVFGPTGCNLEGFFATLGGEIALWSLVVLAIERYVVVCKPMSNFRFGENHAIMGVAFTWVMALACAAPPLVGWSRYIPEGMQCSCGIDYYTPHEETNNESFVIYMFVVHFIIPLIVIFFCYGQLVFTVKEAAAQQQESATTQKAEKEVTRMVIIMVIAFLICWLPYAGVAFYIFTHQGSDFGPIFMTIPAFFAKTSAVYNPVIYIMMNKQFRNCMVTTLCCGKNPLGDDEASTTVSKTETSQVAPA

| Substance | pIC50 [1] | pIC50 [2] |
| --- | --- | --- |
| MBP-Gαt340-350K341R fusion protein (pELM17) | 5.22 |  |
| maltose binding protein-Gαq (MBP-Gαq), native Gq peptide fusion |  | 6.67 |
